T1: human VEGF-C (human, UniProt P49767 103-227)
T1 construct: Bought protein (R&D Systems); also called VC; Vascular endothelial growth factor C
T1 sequence (looked up): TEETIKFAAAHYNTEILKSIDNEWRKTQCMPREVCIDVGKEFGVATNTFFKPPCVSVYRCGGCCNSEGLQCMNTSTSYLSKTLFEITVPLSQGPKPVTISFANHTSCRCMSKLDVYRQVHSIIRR

T2: human VEGF-D (human, UniProt O43915 93-201, limits assumed)
T2 construct: Bought protein (R&D Systems); also called Vascular endothelial growth factor D
T2 sequence (looked up): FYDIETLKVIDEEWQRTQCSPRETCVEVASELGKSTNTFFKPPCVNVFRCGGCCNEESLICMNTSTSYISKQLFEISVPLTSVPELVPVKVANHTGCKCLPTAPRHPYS

T3: human Ang2 (human, UniProt O15123 19-496)
T3 construct: Bought protein (R&D Systems); also called A2; angiopoietin 2
T3 sequence (looked up): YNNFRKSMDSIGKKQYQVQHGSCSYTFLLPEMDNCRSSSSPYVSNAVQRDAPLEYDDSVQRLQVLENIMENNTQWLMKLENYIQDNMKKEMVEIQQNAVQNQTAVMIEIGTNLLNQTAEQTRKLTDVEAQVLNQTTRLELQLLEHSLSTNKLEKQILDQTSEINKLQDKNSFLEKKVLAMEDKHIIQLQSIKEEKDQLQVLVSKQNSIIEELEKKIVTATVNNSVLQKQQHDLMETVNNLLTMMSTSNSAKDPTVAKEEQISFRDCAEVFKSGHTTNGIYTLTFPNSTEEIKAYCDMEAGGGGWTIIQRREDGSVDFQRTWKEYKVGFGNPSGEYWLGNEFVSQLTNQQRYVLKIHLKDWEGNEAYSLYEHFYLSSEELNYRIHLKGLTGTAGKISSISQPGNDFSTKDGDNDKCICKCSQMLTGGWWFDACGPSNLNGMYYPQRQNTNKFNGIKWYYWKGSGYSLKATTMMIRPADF


Experiments:
[1] = biological target: T1, human VEGF-C; test: ELISA, VEGF-C coated on plate, anti-human Fc-HRP detection
Procedure: (§1) To measure binding capacities of fusion polypeptides to each target, ELISA (Enzyme-linked immunosorbent assay) was conducted. On a 96-well MaxiSorp™ flat-bottom plate (Nunc), 50 ul of human VEGF-C, VEGF-D, or Ang2 (R&D Systems) were coated in the concentration of […]. And then, the plate was washed 5 times with PBS containing 0.05% Tween-20, and then, blocked with PBS containing 1% BSA at room temperature for 2 hours. 50 ul of each fusion polypeptide was put in each well according to concentration, and then, the plate was incubated at room temperature for 2 hours. And then, it was washed 5 times with PBS containing 0.05% Tween-20, and then, HRP-conjugated anti-human Fc antibody (Sigma) was diluted to 1:5,000 with PBS containing 1% BSA and reacted at room temperature for 1 hour, and washed 5 times with PBS containing 0.1% Tween-20. Finally, to each well of the plate, 50 μl of TMB substrate (SIGMA) was added to cause color reaction, and then, the reaction was stopped with 50 μl of a 5N H₂SO₄ solution, and OD450 value was measured on a plate reader (Molecular Devices). Thereby, binding capacities (KD) of the manufactured fusion polypeptides to human VEGF-C, VEGF-D or Ang2 protein were measured.

[2] = biological target: T2, human VEGF-D; test: ELISA, VEGF-D coated on plate, anti-human Fc-HRP detection
Procedure: as §1

[3] = biological target: T3, human Ang2; test: ELISA, Ang2 coated on plate, anti-human Fc-HRP detection
Procedure: as §1

Row | Kd [1] [nM] | Kd [2] [nM] | binding result [3] | Kd [3] [nM] | Binder
1 | 100 | 100 | no binding | – | V-body (Fc fusion, Expressed in 293-F cells and purified on MabSelect SuRe; also called fusion polypeptide V-body; R2-2/R3-2-Fc; not shown: Fc fragment of human IgG1, fused to the C-terminus through the pFUSE-hIgG1-Fc1 vector (InvivoGen)) ASDYRSPFIASVSDQHGVVYITENKNKTVVIPCLGSISNLNVSLCARYPEKRFVPDGNRISWDSKKGFTIPSYMISYAGMVFCEAKINDESYQSIMYIVVVVGEQPFINKPDTLLVNRKDAMWVPCLVSIPGLNVTLRSQSSVLWPDGQEVVWDDRRGMLVSTPLLHDALYLQCETTWGDQDFLSNPFLVHITG
2 | 130 | 170 | – | 45 | AV-body 1 (Fc fusion, also called fusion polypeptide AV-body 1; Tie2-ECD/R2-2/R2-3-Fc; not shown: Fc fragment of human IgG1, fused to the C-terminus through the pFUSE-hIgG1-Fc1 vector (InvivoGen)) AMDLILINSLPLVSDAETSLTCIASGWRPHEPITIGRDFEALMNQHQDPLEVTQDVTREWAKKVVWKREKASKINGAYFCEGRVRGEAIRIRTMKMRQQASFLPATLTMTVDKGDNVNISFKKVLIKEEDAVIYKNGSFIHSVPRHEVPDILEVHLPHAQPQDAGVYSARYIGGNLFTSAFTRLIVRRCEAQKWGPECNHLCTACMNNGVCHEDTGECICPPGFMGRTCEKACELHTFGRTCKERCSGQEGCKSYVFCLPDPYGCSCATGWKGLQCNEACHPGFYGPDCKLRCSCNNGEMCDRFQGCLCSPGWQGLQCEREGIEFSPFIASVSDQHGVVYITENKNKTVVIPCLGSISNLNVSLCARYPEKRFVPDGNRISWDSKKGFTIPSYMISYAGMVFCEAKINDESYQSIMYIVVVVGYRIYDVVLSPSHGIELSVGEKLVLNCTARTELNVGIDFNWEYPSSKHQHKKLVNRDLKTQSGSEMKKFLSTLTIDGVTRSDQGLYTCAASSGLMTKKNSTFVRVHE
3 | 34 | 42 | – | 20 | AV-body 2 (Fc fusion, also called fusion polypeptide AV-body 2; Tie2-ECD/R2-2/R3-2-Fc; not shown: Fc fragment of human IgG1, fused to the C-terminus through the pFUSE-hIgG1-Fc1 vector (InvivoGen)) AMDLILINSLPLVSDAETSLTCIASGWRPHEPITIGRDFEALMNQHQDPLEVTQDVTREWAKKVVWKREKASKINGAYFCEGRVRGEAIRIRTMKMRQQASFLPATLTMTVDKGDNVNISFKKVLIKEEDAVIYKNGSFIHSVPRHEVPDILEVHLPHAQPQDAGVYSARYIGGNLFTSAFTRLIVRRCEAQKWGPECNHLCTACMNNGVCHEDTGECICPPGFMGRTCEKACELHTFGRTCKERCSGQEGCKSYVFCLPDPYGCSCATGWKGLQCNEACHPGFYGPDCKLRCSCNNGEMCDRFQGCLCSPGWQGLQCEREGIEFMQSKVLLAVALWLCVETRAASDYRSPFIASVSDQHGVVYITENKNKTVVIPCLGSISNLNVSLCARYPEKRFVPDGNRISWDSKKGFTIPSYMISYAGMVFCEAKINDESYQSIMYIVVVVGEQPFINKPDTLLVNRKDAMWVPCLVSIPGLNVTLRSQSSVLWPDGQEVVWDDRRGMLVSTPLLHDALYLQCETTWGDQDFLSNPFLVHITG

From patent US20150023958A1 (SAMSUNG ELECTRONICS, published 2015)
